Assay results reported in US20230381229A1.

Experiments:
CD28 (human) = experiment: flow cytometry on HEK293 cells transfected with CD28
[1] = target: CD80 expressed on cells (Homo sapiens); experiment: flow cytometry, cells expressing CD80
[2] = target: PD-1 expressed on cells (human); experiment: flow cytometry, cells expressing PD-1
Sequence of PD-1 expressed on cells (human) (chain, as listed by the source): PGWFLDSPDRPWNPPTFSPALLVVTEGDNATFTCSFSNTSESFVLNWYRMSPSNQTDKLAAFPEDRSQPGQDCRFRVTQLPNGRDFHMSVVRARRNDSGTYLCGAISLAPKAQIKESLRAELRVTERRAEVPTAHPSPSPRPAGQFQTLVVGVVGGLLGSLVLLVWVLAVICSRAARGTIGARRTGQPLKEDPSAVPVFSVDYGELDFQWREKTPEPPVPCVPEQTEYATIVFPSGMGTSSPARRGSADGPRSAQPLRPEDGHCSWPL

Binder | MFI at 66.6 nM (CD28 (human)) | Fold Change Compared to WT PD-L1 [1] | MFI at 20 nM [1] | Fold Change Compared to WT PD-L1 [2] | MFI at 20 nM [2]
WT CD80 IgV/IgC-Fc (Fc fusion) VIHVTKEVKEVATLSCGHNVSVEELAQTRIYWQKEKKMVLTMMSGDMNIWPEYKNRTIFDITNNLSIVILALRPSDEGTYECVVLKYEKDAFKREHLAEVTLSVKADFPTPSISDFEIPTSNIRRIICSTSGGFPEPHLSWLENGEELNAINTTVSQDPETELYAVSSKLDFNMTTNHSFMCLIKYGHLRVNQTFNWNTTKQEHFPDN | 3070 | – | – | – | –
variant PD-L1 ECD-Fc K57R, S99G, R195G (Fc fusion) FTVTVPKDLYVVEYGSNMTIECKFPVEKQLDLAALIVYWEMEDKNIIQFVHGEEDLRVQHSSYRQRARLLKDQLSLGNAALQITDVKLQDAGVYRCMIGYGGADYKRITVKVNAPYNKINQRILVVDPVTSEHELTCQAEGYPKAEVIWTSSDHQVLSGKTTTTNSKREEKLFNVTSTLRINTTTNEIFYCTFRGLDPEENHTAELVIPELPLAHPPNER | – | 81.8 | 11000 | 0.8 | –
variant PD-L1 ECD-Fc I36T, M97L, Q155H, F193S, N201Y (Fc fusion) FTVTVPKDLYVVEYGSNMTIECKFPVEKQLDLAALTVYWEMEDKNIIQFVHGEEDLKVQHSSYRQRARLLKDQLSLGNAALQITDVKLQDAGVYRCLISYGGADYKRITVKVNAPYNKINQRILVVDPVTSEHELTCQAEGYPKAEVIWTSSDHHVLSGKTTTTNSKREEKLFNVTSTLRINTTTNEIFYCTSRRLDPEEYHTAELVIPELPLAHPPNER | – | 9.3 | 1250 | 0 | 69
variant PD-L1 ECD-Fc N17D, M97L, S99G (Fc fusion) FTVTVPKDLYVVEYGSDMTIECKFPVEKQLDLAALIVYWEMEDKNIIQFVHGEEDLKVQHSSYRQRARLLKDQLSLGNAALQITDVKLQDAGVYRCLIGYGGADYKRITVKVNAPYNKINQRILVVDPVTSEHELTCQAEGYPKAEVIWTSSDHQVLSGKTTTTNSKREEKLFNVTSTLRINTTTNEIFYCTFRRLDPEENHTAELVIPELPLAHPPNER | – | 547 | – | 3.2 | –
variant PD-L1 ECD-Fc Y10F, M18V, S99G, Q138R, T203A (Fc fusion) FTVTVPKDLFVVEYGSNVTIECKFPVEKQLDLAALIVYWEMEDKNIIQFVHGEEDLKVQHSSYRQRARLLKDQLSLGNAALQITDVKLQDAGVYRCMIGYGGADYKRITVKVNAPYNKINQRILVVDPVTSEHELTCRAEGYPKAEVIWTSSDHQVLSGKTTTTNSKREEKLFNVTSTLRINTTTNEIFYCTFRRLDPEENHAAELVIPELPLAHPPNER | – | 3.1 | 412 | 0 | 70
